# Laboratory results taken from IntAct's records for PubMed 31046837.
# Target: at2a2_mouse Atp2a2 (UniProt O55143)
# Sequence (O55143 whole entry): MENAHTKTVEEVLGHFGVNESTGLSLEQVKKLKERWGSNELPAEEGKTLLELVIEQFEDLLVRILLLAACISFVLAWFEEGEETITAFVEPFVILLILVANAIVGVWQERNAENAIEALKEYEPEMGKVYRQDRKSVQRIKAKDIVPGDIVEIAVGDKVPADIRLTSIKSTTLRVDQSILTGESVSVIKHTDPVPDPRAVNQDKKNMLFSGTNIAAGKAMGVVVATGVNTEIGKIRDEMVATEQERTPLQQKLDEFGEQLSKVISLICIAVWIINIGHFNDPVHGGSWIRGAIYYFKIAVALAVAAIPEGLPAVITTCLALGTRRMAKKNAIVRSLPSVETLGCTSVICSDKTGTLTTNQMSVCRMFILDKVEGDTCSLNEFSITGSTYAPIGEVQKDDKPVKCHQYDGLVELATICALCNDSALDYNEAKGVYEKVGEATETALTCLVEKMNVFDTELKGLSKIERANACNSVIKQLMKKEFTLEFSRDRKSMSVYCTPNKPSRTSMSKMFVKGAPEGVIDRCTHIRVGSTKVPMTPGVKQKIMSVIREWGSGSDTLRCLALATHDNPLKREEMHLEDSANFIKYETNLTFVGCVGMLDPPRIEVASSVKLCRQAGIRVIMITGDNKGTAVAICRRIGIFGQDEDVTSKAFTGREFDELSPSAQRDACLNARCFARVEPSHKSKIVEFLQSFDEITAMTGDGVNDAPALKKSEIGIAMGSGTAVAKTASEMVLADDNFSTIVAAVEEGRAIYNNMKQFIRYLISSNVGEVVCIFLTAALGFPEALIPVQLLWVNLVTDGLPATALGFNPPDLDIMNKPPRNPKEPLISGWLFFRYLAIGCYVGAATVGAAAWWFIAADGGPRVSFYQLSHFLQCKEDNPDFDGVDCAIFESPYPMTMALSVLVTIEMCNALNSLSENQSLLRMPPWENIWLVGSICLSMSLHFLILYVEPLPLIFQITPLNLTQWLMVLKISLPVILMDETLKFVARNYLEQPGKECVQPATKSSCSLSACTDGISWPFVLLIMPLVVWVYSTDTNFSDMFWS
substance,measurement,value
"Leucine-rich repeat serine/threonine-protein kinase 2 (Homo sapiens), Q5S007 G2019S",effect of a mutation on the interaction,increasing interaction strength
